# According to patent US20170081400A1 (CEPHALON, published 2017):
# Changes are numbered by the printed parent chain.
# T1: human TL1A extracellular domain with N-terminal HIS and FLAG tag (human, UniProt O95150 72-251)
# T1 construct: the whole entry is named
# T1 sequence: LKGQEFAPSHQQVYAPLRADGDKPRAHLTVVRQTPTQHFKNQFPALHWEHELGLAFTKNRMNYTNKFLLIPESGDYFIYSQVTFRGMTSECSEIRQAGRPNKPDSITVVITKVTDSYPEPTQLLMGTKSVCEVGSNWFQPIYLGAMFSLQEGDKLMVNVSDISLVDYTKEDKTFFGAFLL
# B1: 320-389 (antibody, human IgG1, name in Kabat numbering, V domains shown)
# VH: QVQLVQSGAEVKKPGASVKVSCKASSYTFTSYDINWVRQAPGQGLEWMGWLNPNSGNTGYAQKFQGRVTMTADRSTSTAYMELSSLRSEDTAVYYCAREVPETAAFEYWGQGTLVTVSS
# VL: QSVLTQPPSVSGAPGQRVTISCTSSSSDIGAGLGVHWYQQLPGTAPKLLIEGYYNRPSGVPDRFSGSKSGTSASLTITGLLPEDEGDYYCQSYDGTLSALFGGGTKLTVLG
# notes: human IgG1, lambda
# B2: 320-394 (antibody, human IgG1, name in Kabat numbering, V domains shown)
# VH: B1 VH with S26L
# VL: B1 VL
# notes: human IgG1, lambda
# B3: 320-390 (antibody, human IgG1, name in Kabat numbering, V domains shown)
# VH: B1 VH with S26Q
# VL: B1 VL
# notes: human IgG1, lambda
# B4: 320-405 (antibody, human IgG1, name in Kabat numbering, V domains shown)
# VH: B1 VH with S26G, T28S
# VL: B1 VL
# notes: human IgG1, lambda
# B5: 320-408 (antibody, human IgG1, name in Kabat numbering, V domains shown)
# VH: B1 VH with S26G, T28H
# VL: B1 VL
# notes: human IgG1, lambda
# B6: 320-417 (antibody, human IgG1, name in Kabat numbering, V domains shown)
# VH: B1 VH with S26G, F29H
# VL: B1 VL
# notes: human IgG1, lambda
# B7: 320-414 (antibody, human IgG1, name in Kabat numbering, V domains shown)
# VH: B1 VH with S26G, F29S
# VL: B1 VL
# notes: human IgG1, lambda
# B8: 320-415 (antibody, human IgG1, name in Kabat numbering, V domains shown)
# VH: B1 VH with S26G, F29Q
# VL: B1 VL
# notes: human IgG1, lambda
# B9: 320-413 (antibody, human IgG1, name in Kabat numbering, V domains shown)
# VH: B1 VH with S26G, F29A
# VL: B1 VL
# notes: human IgG1, lambda
# B10: 320-418 (antibody, human IgG1, name in Kabat numbering, V domains shown)
# VH: B1 VH with S26G, F29K
# VL: B1 VL
# notes: human IgG1, lambda
# B11: 320-397 (antibody, human IgG1, name in Kabat numbering, V domains shown)
# VH: B1 VH with S26G, Y27A
# VL: B1 VL
# notes: human IgG1, lambda
# B12: 320-424 (antibody, human IgG1, name in Kabat numbering, V domains shown)
# VH: B1 VH with S26G, T30Q
# VL: B1 VL
# notes: human IgG1, lambda
# B13: 320-395 (antibody, human IgG1, name in Kabat numbering, V domains shown)
# VH: B1 VH with S26W
# VL: B1 VL
# notes: human IgG1, lambda
# B14: 320-407 (antibody, human IgG1, name in Kabat numbering, V domains shown)
# VH: B1 VH with S26G, T28D
# VL: B1 VL
# notes: human IgG1, lambda
# B15: 320-416 (antibody, human IgG1, name in Kabat numbering, V domains shown)
# VH: B1 VH with S26G, F29D
# VL: B1 VL
# notes: human IgG1, lambda
# B16: 320-402 (antibody, human IgG1, name in Kabat numbering, V domains shown)
# VH: B1 VH with S26G, Y27L
# VL: B1 VL
# notes: human IgG1, lambda
# B17: 320-391 (antibody, human IgG1, name in Kabat numbering, V domains shown)
# VH: B1 VH with S26D
# VL: B1 VL
# notes: human IgG1, lambda
# B18: 320-399 (antibody, human IgG1, name in Kabat numbering, V domains shown)
# VH: B1 VH with S26G, Y27Q
# VL: B1 VL
# notes: human IgG1, lambda
# B19: 320-398 (antibody, human IgG1, name in Kabat numbering, V domains shown)
# VH: B1 VH with S26G, Y27S
# VL: B1 VL
# notes: human IgG1, lambda
# B20: 320-412 (antibody, human IgG1, name in Kabat numbering, V domains shown)
# VH: B1 VH with S26G, T28Y
# VL: B1 VL
# notes: human IgG1, lambda
# B21: 320-406 (antibody, human IgG1, name in Kabat numbering, V domains shown)
# VH: B1 VH with S26G, T28Q
# VL: B1 VL
# notes: human IgG1, lambda
# B22: 320-419 (antibody, human IgG1, name in Kabat numbering, V domains shown)
# VH: B1 VH with S26G, F29L
# VL: B1 VL
# notes: human IgG1, lambda
# B23: 320-410 (antibody, human IgG1, name in Kabat numbering, V domains shown)
# VH: B1 VH with S26G, T28L
# VL: B1 VL
# notes: human IgG1, lambda
# B24: 320-422 (antibody, human IgG1, name in Kabat numbering, V domains shown)
# VH: B1 VH with S26G, T30A
# VL: B1 VL
# notes: human IgG1, lambda
# B25: 320-400 (antibody, human IgG1, name in Kabat numbering, V domains shown)
# VH: B1 VH with S26G, Y27D
# VL: B1 VL
# notes: human IgG1, lambda
# B26: 320-392 (antibody, human IgG1, name in Kabat numbering, V domains shown)
# VH: B1 VH with S26H
# VL: B1 VL
# notes: human IgG1, lambda
# B27: 320-401 (antibody, human IgG1, name in Kabat numbering, V domains shown)
# VH: B1 VH with S26G, Y27H
# VL: B1 VL
# notes: human IgG1, lambda
# B28: 320-409 (antibody, human IgG1, name in Kabat numbering, V domains shown)
# VH: B1 VH with S26G, T28K
# VL: B1 VL
# notes: human IgG1, lambda
# B29: 320-393 (antibody, human IgG1, name in Kabat numbering, V domains shown)
# VH: B1 VH with S26K
# VL: B1 VL
# notes: human IgG1, lambda
# B30: 320-396 (antibody, human IgG1, name in Kabat numbering, V domains shown)
# VH: B1 VH with S26Y
# VL: B1 VL
# notes: human IgG1, lambda
# B31: 320-411 (antibody, human IgG1, name in Kabat numbering, V domains shown)
# VH: B1 VH with S26G, T28W
# VL: B1 VL
# notes: human IgG1, lambda
# B32: 320-423 (antibody, human IgG1, name in Kabat numbering, V domains shown)
# VH: B1 VH with S26G, T30S
# VL: B1 VL
# notes: human IgG1, lambda
# B33: 320-404 (antibody, human IgG1, name in Kabat numbering, V domains shown)
# VH: B1 VH with S26G, T28A
# VL: B1 VL
# notes: human IgG1, lambda
# B34: 320-420 (antibody, human IgG1, name in Kabat numbering, V domains shown)
# VH: B1 VH with S26G, F29W
# VL: B1 VL
# notes: human IgG1, lambda
# B35: 320-403 (antibody, human IgG1, name in Kabat numbering, V domains shown)
# VH: B1 VH with S26G, Y27W
# VL: B1 VL
# notes: human IgG1, lambda
# Target: T1, human TL1A extracellular domain with …
# Assay: SPR Run 5, Ab from supernatant captured on Protein A, TL1A 5 ug/mL, timepoint 44
# From the text: (§1) 1.5. Antibody expression and antigen binding as determined by SPR. Using a CM5 sensor chip (GE Healthcare) Protein A (Pierce) was coupled to the chip surface using an amine coupling kit (GE Healthcare). Protein A was coupled on flow cell 1 and 2 (or alternatively 3 and 4) using a BIACORE® T200. […] The amount of supernatant or purified protein (as well as the concentration) injected during the capture stage varied between runs and is specified in the header of the Tables 3-11. At the end of injection of the supernatant or purified antibody the change in response units was measured. This value was reported as Capture Level in Tables 3-11. […] The response units were measured prior to the end of the dissociation phase. […] The sensorgrams were double referenced (flow cell 2 is subtracted from flow cell 1 and a buffer blank). As there were a large number of antibody variants to screen, these were screened across different runs (Tables 3-11). […] A summary of the conditions used in each run is below:
# (§2) 2.1. […] In some experiment the antibodies were purified using Protein A chromatography (See 1.4) and purified antibodies were used in BIACORE® (GE Healthcare) experiments.
row,TL1A Binding Level (Early),Binder
1,12 RU,B1
2,13 RU,B2
3,12 RU,B3
4,10 RU,B4
5,13 RU,B5
6,9 RU,B6
7,7 RU,B7
8,5 RU,B8
9,9 RU,B9
10,10 RU,B10
11,12 RU,B11
12,11 RU,B12
13,13 RU,B13
14,12 RU,B14
15,9 RU,B15
16,11 RU,B16
17,14 RU,B17
18,10 RU,B18

row,TL1A Binding Level (Early),Binder
1,12 RU,B19
2,10 RU,B20
3,8 RU,B21
4,11 RU,B22
5,11 RU,B23
6,10 RU,B24
7,11 RU,B25
8,12 RU,B26
9,11 RU,B27
10,10 RU,B28
11,12 RU,B29
12,12 RU,B30
13,10 RU,B31
14,10 RU,B32
15,11 RU,B33
16,11 RU,B34
17,11 RU,B35

# Target: T1, human TL1A extracellular domain with …
# Assay: SPR Run 5, Ab from supernatant captured on Protein A, TL1A 5 ug/mL, timepoint 220
# From the text: as §1, §2
row,TL1A Binding Level (Late),Binder
1,11 RU,B1
2,12 RU,B2
3,11 RU,B3
4,9 RU,B4
5,12 RU,B5
6,8 RU,B6
7,7 RU,B7
8,4 RU,B8
9,8 RU,B9
10,9 RU,B10
11,12 RU,B11
12,10 RU,B12
13,12 RU,B13
14,11 RU,B14
15,8 RU,B15
16,10 RU,B16
17,13 RU,B17
18,10 RU,B18

row,TL1A Binding Level (Late),Binder
1,11 RU,B19
2,9 RU,B20
3,7 RU,B21
4,9 RU,B22
5,10 RU,B23
6,9 RU,B24
7,11 RU,B25
8,11 RU,B26
9,10 RU,B27
10,10 RU,B28
11,11 RU,B29
12,11 RU,B30
13,9 RU,B31
14,10 RU,B32
15,10 RU,B33
16,10 RU,B34
17,10 RU,B35
